The results in this text go back to PMC2542476.

This assay addresses CFP-Cav1 (human caveolin-1 with CFP at its N terminus) (human) (UniProt Q03135). In words: FRET or BRET. Background: Bioluminescence resonance energy transfer reports proximity on the nanometre scale.
Sequence of UniProt Q03135 (Q03135 whole entry): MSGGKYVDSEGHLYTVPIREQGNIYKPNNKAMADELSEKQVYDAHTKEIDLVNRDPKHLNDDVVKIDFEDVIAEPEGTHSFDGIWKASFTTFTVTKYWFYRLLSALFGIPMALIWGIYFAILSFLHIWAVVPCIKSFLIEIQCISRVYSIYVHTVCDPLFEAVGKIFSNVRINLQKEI

On to “YFP-tagged rat Na/K-ATPase α1 pump-null mutant D371N (natural protein)”, for which the FRET efficiency turned out to be 15%.
